# US20210179716A1 (Pfizer, published 2021)
# What was measured:
# human CD47 protein = target: T1, human CD47 protein (human, UniProt Q08722 19-139, limits assumed); experiment: KD; method not stated
# T1 construct: Soluble protein used for the KD measurements; construct not described; also called hCD47; CD47 (human)
# cynomolgus CD47 protein = target: T2, cynomolgus CD47 protein (cynomolgus monkey, UniProt A0A2K5X523 19-139); experiment: KD; method not stated
# T2 construct: also called cyCD47; Cyno CD47
# T1 sequence (Q08722 19-139 limits assumed): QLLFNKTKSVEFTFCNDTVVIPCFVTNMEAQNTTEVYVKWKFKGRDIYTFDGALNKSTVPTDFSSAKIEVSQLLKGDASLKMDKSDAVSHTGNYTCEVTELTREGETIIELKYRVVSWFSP
Binder,Kd (human CD47 protein) [µM],Kd (cynomolgus CD47 protein) [µM]
"P1A11_D99E (antibody, V domains shown, Variant of P01A11) VH: QVQLVQSGAEVKKPGSSVKVSCKASGYTFTNYAISWVRQAPGQGLEWMGGISPLFGTANYAQKFQGRVTITADESTSTAYMELSSLRSEDTAVYYCAREGGRSSDVGWYVGAMDVWGQGTLVTVSS VL: not shown",1.2,> 1.5
"P01A11_D105E (antibody, V domains shown, Variant of P01A11) VH: QVQLVQSGAEVKKPGSSVKVSCKASGYTFTNYAISWVRQAPGQGLEWMGGISPLFGTANYAQKFQGRVTITADESTSTAYMELSSLRSEDTAVYYCARDGGRSSEVGWYVGAMDVWGQGTLVTVSS VL: not shown",0.048,0.062
"P1A11_F55L (antibody, V domains shown, Variant of P01A11) VH: QVQLVQSGAEVKKPGSSVKVSCKASGYTFTNYAISWVRQAPGQGLEWMGGISPLLGTANYAQKFQGRVTITADESTSTAYMELSSLRSEDTAVYYCARDGGRSSDVGWYVGAMDVWGQGTLVTVSS VL: not shown",0.0027,0.0033
"P1A11_G100A (antibody, V domains shown, Variant of P01A11) VH: QVQLVQSGAEVKKPGSSVKVSCKASGYTFTNYAISWVRQAPGQGLEWMGGISPLFGTANYAQKFQGRVTITADESTSTAYMELSSLRSEDTAVYYCARDAGRSSDVGWYVGAMDVWGQGTLVTVSS VL: not shown",0.0085,0.011
"P1A11_G100Q (antibody, V domains shown, Variant of P01A11) VH: QVQLVQSGAEVKKPGSSVKVSCKASGYTFTNYAISWVRQAPGQGLEWMGGISPLFGTANYAQKFQGRVTITADESTSTAYMELSSLRSEDTAVYYCARDQGRSSDVGWYVGAMDVWGQGTLVTVSS VL: not shown",> 1.5,> 1.5
"P1A11_G100S (antibody, V domains shown, Variant of P01A11) VH: QVQLVQSGAEVKKPGSSVKVSCKASGYTFTNYAISWVRQAPGQGLEWMGGISPLFGTANYAQKFQGRVTITADESTSTAYMELSSLRSEDTAVYYCARDSGRSSDVGWYVGAMDVWGQGTLVTVSS VL: not shown",0.028,0.036
"P01A11_G100V (antibody, V domains shown, Variant of P01A11) VH: QVQLVQSGAEVKKPGSSVKVSCKASGYTFTNYAISWVRQAPGQGLEWMGGISPLFGTANYAQKFQGRVTITADESTSTAYMELSSLRSEDTAVYYCARDVGRSSDVGWYVGAMDVWGQGTLVTVSS VL: not shown",> 1.5,> 1.5
"P01A11_L54A_D114E (antibody, V domains shown, Variant of P01A11) VH: QVQLVQSGAEVKKPGSSVKVSCKASGYTFTNYAISWVRQAPGQGLEWMGGISPAFGTANYAQKFQGRVTITADESTSTAYMELSSLRSEDTAVYYCARDGGRSSDVGWYVGAMEVWGQGTLVTVSS VL: not shown",0.031,0.046
"P01A11_L54A_R102A (antibody, V domains shown, Variant of P01A11) VH: QVQLVQSGAEVKKPGSSVKVSCKASGYTFTNYAISWVRQAPGQGLEWMGGISPAFGTANYAQKFQGRVTITADESTSTAYMELSSLRSEDTAVYYCARDGGASSDVGWYVGAMDVWGQGTLVTVSS VL: not shown",0.038,0.045
"P01A11_L54A_S104E (antibody, V domains shown, Variant of P01A11) VH: QVQLVQSGAEVKKPGSSVKVSCKASGYTFTNYAISWVRQAPGQGLEWMGGISPAFGTANYAQKFQGRVTITADESTSTAYMELSSLRSEDTAVYYCARDGGRSEDVGWYVGAMDVWGQGTLVTVSS VL: not shown",0.019,0.016
"P1A11_L54I (antibody, V domains shown, Variant of P01A11) VH: QVQLVQSGAEVKKPGSSVKVSCKASGYTFTNYAISWVRQAPGQGLEWMGGISPIFGTANYAQKFQGRVTITADESTSTAYMELSSLRSEDTAVYYCARDGGRSSDVGWYVGAMDVWGQGTLVTVSS VL: not shown",0.00069,0.0013
"P1A11_M113I (antibody, V domains shown, Variant of P01A11) VH: QVQLVQSGAEVKKPGSSVKVSCKASGYTFTNYAISWVRQAPGQGLEWMGGISPLFGTANYAQKFQGRVTITADESTSTAYMELSSLRSEDTAVYYCARDGGRSSDVGWYVGAIDVWGQGTLVTVSS VL: not shown",0.0029,0.0037
"P1A11_M113L (antibody, V domains shown, Variant of P01A11) VH: QVQLVQSGAEVKKPGSSVKVSCKASGYTFTNYAISWVRQAPGQGLEWMGGISPLFGTANYAQKFQGRVTITADESTSTAYMELSSLRSEDTAVYYCARDGGRSSDVGWYVGALDVWGQGTLVTVSS VL: not shown",0.00086,0.0012
"P1A11_N31S (antibody, V domains shown, Variant of P01A11) VH: QVQLVQSGAEVKKPGSSVKVSCKASGYTFTSYAISWVRQAPGQGLEWMGGISPLFGTANYAQKFQGRVTITADESTSTAYMELSSLRSEDTAVYYCARDGGRSSDVGWYVGAMDVWGQGTLVTVSS VL: not shown",0.007,0.0093
"P01A11_P53G (antibody, V domains shown, Variant of P01A11) VH: QVQLVQSGAEVKKPGSSVKVSCKASGYTFTNYAISWVRQAPGQGLEWMGGISGLFGTANYAQKFQGRVTITADESTSTAYMELSSLRSEDTAVYYCARDGGRSSDVGWYVGAMDVWGQGTLVTVSS VL: not shown",0.0056,0.0076
"P01A11_P53G_D105E (antibody, V domains shown, Variant of P01A11) VH: QVQLVQSGAEVKKPGSSVKVSCKASGYTFTNYAISWVRQAPGQGLEWMGGISGLFGTANYAQKFQGRVTITADESTSTAYMELSSLRSEDTAVYYCARDGGRSSEVGWYVGAMDVWGQGTLVTVSS VL: not shown",0.241,0.351
"P01A11_P53G_D114E (antibody, V domains shown, Variant of P01A11) VH: QVQLVQSGAEVKKPGSSVKVSCKASGYTFTNYAISWVRQAPGQGLEWMGGISGLFGTANYAQKFQGRVTITADESTSTAYMELSSLRSEDTAVYYCARDGGRSSDVGWYVGAMEVWGQGTLVTVSS VL: not shown",0.3,0.52
"P1A11_S52I (antibody, V domains shown, Variant of P01A11) VH: QVQLVQSGAEVKKPGSSVKVSCKASGYTFTNYAISWVRQAPGQGLEWMGGIIPLFGTANYAQKFQGRVTITADESTSTAYMELSSLRSEDTAVYYCARDGGRSSDVGWYVGAMDVWGQGTLVTVSS VL: not shown",1.31,> 1.5
"P1A11_T30S (antibody, V domains shown, Variant of P01A11) VH: QVQLVQSGAEVKKPGSSVKVSCKASGYTFSNYAISWVRQAPGQGLEWMGGISPLFGTANYAQKFQGRVTITADESTSTAYMELSSLRSEDTAVYYCARDGGRSSDVGWYVGAMDVWGQGTLVTVSS VL: not shown",0.0018,0.0025
"P01A11_T30S_N31S_L54I_G100A (antibody, V domains shown, Variant of P01A11) VH: QVQLVQSGAEVKKPGSSVKVSCKASGYTFSSYAISWVRQAPGQGLEWMGGISPIFGTANYAQKFQGRVTITADESTSTAYMELSSLRSEDTAVYYCARDAGRSSDVGWYVGAMDVWGQGTLVTVSS VL: not shown",0.097,0.138
"P01A11_T30S_N31S_L54I_G100A_M113I (antibody, V domains shown, Variant of P01A11) VH: QVQLVQSGAEVKKPGSSVKVSCKASGYTFSSYAISWVRQAPGQGLEWMGGISPIFGTANYAQKFQGRVTITADESTSTAYMELSSLRSEDTAVYYCARDAGRSSDVGWYVGAIDVWGQGTLVTVSS VL: not shown",0.075,0.105
"P01A11_T30S_N31S_L54I_G100A_M113L (antibody, V domains shown, Variant of P01A11) VH: QVQLVQSGAEVKKPGSSVKVSCKASGYTFSSYAISWVRQAPGQGLEWMGGISPIFGTANYAQKFQGRVTITADESTSTAYMELSSLRSEDTAVYYCARDAGRSSDVGWYVGALDVWGQGTLVTVSS VL: not shown",0.106,0.12
"P01A11_T30S_N31S_L54I_G100A_W108Y_M113L (antibody, V domains shown, Variant of P01A11) VH: QVQLVQSGAEVKKPGSSVKVSCKASGYTFSSYAISWVRQAPGQGLEWMGGISPIFGTANYAQKFQGRVTITADESTSTAYMELSSLRSEDTAVYYCARDAGRSSDVGYYVGALDVWGQGTLVTVSS VL: not shown",> 1.5,> 1.5
"P01A11_W108A (antibody, V domains shown, Variant of P01A11) VH: QVQLVQSGAEVKKPGSSVKVSCKASGYTFTNYAISWVRQAPGQGLEWMGGISPLFGTANYAQKFQGRVTITADESTSTAYMELSSLRSEDTAVYYCARDGGRSSDVGAYVGAMDVWGQGTLVTVSS VL: not shown",0.608,0.773
"P1A11_W108F (antibody, V domains shown, Variant of P01A11) VH: QVQLVQSGAEVKKPGSSVKVSCKASGYTFTNYAISWVRQAPGQGLEWMGGISPLFGTANYAQKFQGRVTITADESTSTAYMELSSLRSEDTAVYYCARDGGRSSDVGFYVGAMDVWGQGTLVTVSS VL: not shown",0.103,0.117
"P1A11_W108Y (antibody, V domains shown, Variant of P01A11) VH: QVQLVQSGAEVKKPGSSVKVSCKASGYTFTNYAISWVRQAPGQGLEWMGGISPLFGTANYAQKFQGRVTITADESTSTAYMELSSLRSEDTAVYYCARDGGRSSDVGYYVGAMDVWGQGTLVTVSS VL: not shown",0.025,0.032
"P1A11_Y27G (antibody, V domains shown, Variant of P01A11) VH: QVQLVQSGAEVKKPGSSVKVSCKASGGTFTNYAISWVRQAPGQGLEWMGGISPLFGTANYAQKFQGRVTITADESTSTAYMELSSLRSEDTAVYYCARDGGRSSDVGWYVGAMDVWGQGTLVTVSS VL: not shown",0.02,0.023
"P01A11_Y27G_L54I_G100A (antibody, V domains shown, Variant of P01A11) VH: QVQLVQSGAEVKKPGSSVKVSCKASGGTFTNYAISWVRQAPGQGLEWMGGISPIFGTANYAQKFQGRVTITADESTSTAYMELSSLRSEDTAVYYCARDAGRSSDVGWYVGAMDVWGQGTLVTVSS VL: not shown",0.132,0.18
"P01A11_Y27G_L54I_G100A_M113I (antibody, V domains shown, Variant of P01A11) VH: QVQLVQSGAEVKKPGSSVKVSCKASGGTFTNYAISWVRQAPGQGLEWMGGISPIFGTANYAQKFQGRVTITADESTSTAYMELSSLRSEDTAVYYCARDAGRSSDVGWYVGAIDVWGQGTLVTVSS VL: not shown",0.263,0.371
"P01A11_Y27G_L54I_G100A_M113L (antibody, V domains shown, Variant of P01A11) VH: QVQLVQSGAEVKKPGSSVKVSCKASGGTFTNYAISWVRQAPGQGLEWMGGISPIFGTANYAQKFQGRVTITADESTSTAYMELSSLRSEDTAVYYCARDAGRSSDVGWYVGALDVWGQGTLVTVSS VL: not shown",0.154,0.198
